From PMC4333415, “Structural insight into operator dre-sites recognition and effector binding in the GntR/HutC transcription regulator NagR” (Nucleic Acids Research, 2015) come the findings set out here.

Series [1] deals with the molecule itself. The series is described as follows: crystal structure; full-length NagR co-crystallised with 10 mM GlcN-6-P or GlcNAc-6-P; sitting drop, 292 K; isomorphous crystals, space group R32:H; one homodimer in the asymmetric unit.
In series [2] the target is T1, NagR (YvoA) (Bacillus subtilis, UniProt O34817 1-243).
T1 sequence: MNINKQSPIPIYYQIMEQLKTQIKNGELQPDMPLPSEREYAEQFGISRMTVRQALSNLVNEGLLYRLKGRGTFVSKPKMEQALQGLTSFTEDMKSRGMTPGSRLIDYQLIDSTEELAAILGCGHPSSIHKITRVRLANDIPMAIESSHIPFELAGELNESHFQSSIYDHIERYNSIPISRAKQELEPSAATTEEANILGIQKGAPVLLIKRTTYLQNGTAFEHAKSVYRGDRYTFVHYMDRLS
Put plainly: SPR; kinetic 1:1 fit; SPR: HBS-EP pH 7.4, 25 C, biotinylated DNA on SA chip; DNA for EMSA/SEC annealed in 20 mM Tris-HCl pH 7.5, 150 mM NaCl; crystal 4WWC: 0.1 M Bis-Tris pH 6.5, 25% PEG 3500, 292 K. The conditions noted are these: protein: recombinant; tags: pET15b template; chain copies: 2; label: 5'-biotin on strand 1; blunt. Background: SPR reads the build-up and loss of mass on a sensor chip optically.

Series [3] has as its target T2, NagR-DBD (Bacillus subtilis, UniProt O34817 1-75).
T2 sequence: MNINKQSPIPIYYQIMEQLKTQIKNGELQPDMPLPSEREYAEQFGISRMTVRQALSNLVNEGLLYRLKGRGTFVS
The series is described as follows: SPR; 1:1 steady state; SPR: HBS-EP pH 7.4, 25 C, biotinylated DNA on SA chip; DNA for EMSA/SEC annealed in 20 mM Tris-HCl pH 7.5, 150 mM NaCl; crystal 4WWC: 0.1 M Bis-Tris pH 6.5, 25% PEG 3500, 292 K. The conditions noted are these: protein: recombinant; tags: N-terminal His6 with thrombin site (pET15b); chain copies: 2; label: 5'-biotin on strand 1; blunt.

Series [4] deals with T2, NagR-DBD. Put plainly: SPR; SPR: HBS-EP pH 7.4, 25 C, biotinylated DNA on SA chip; DNA for EMSA/SEC annealed in 20 mM Tris-HCl pH 7.5, 150 mM NaCl; crystal 4WWC: 0.1 M Bis-Tris pH 6.5, 25% PEG 3500, 292 K. The following applies: protein: recombinant; tags: N-terminal His6 with thrombin site (pET15b); chain copies: 2; label: 5'-biotin on strand 1; blunt; one T:C mismatch as printed at position 3 of strand 1 (possible misprint).

Series [5] deals with T1, NagR (YvoA). The series is described as follows: SPR; 1:1 steady state; SPR: HBS-EP pH 7.4, 25 C, biotinylated DNA on SA chip; DNA for EMSA/SEC annealed in 20 mM Tris-HCl pH 7.5, 150 mM NaCl; crystal 4WWC: 0.1 M Bis-Tris pH 6.5, 25% PEG 3500, 292 K. The following applies: protein: recombinant, tags: pET15b template, chain copies: 2, label: 5'-biotin on strand 1, blunt.
Series [6] has as its target T2, NagR-DBD. The series is described as follows: SPR; KD1 of two-step model, steady state; SPR: HBS-EP pH 7.4, 25 C, biotinylated DNA on SA chip; DNA for EMSA/SEC annealed in 20 mM Tris-HCl pH 7.5, 150 mM NaCl; crystal 4WWC: 0.1 M Bis-Tris pH 6.5, 25% PEG 3500, 292 K. The conditions noted are these: protein: recombinant; tags: N-terminal His6 with thrombin site (pET15b); chain copies: 2; label: 5'-biotin on strand 1; blunt.

Series [7] addresses T2, NagR-DBD. Put plainly: SEC; 3 uM DNA; SPR: HBS-EP pH 7.4, 25 C, biotinylated DNA on SA chip; DNA for EMSA/SEC annealed in 20 mM Tris-HCl pH 7.5, 150 mM NaCl; crystal 4WWC: 0.1 M Bis-Tris pH 6.5, 25% PEG 3500, 292 K. The conditions noted are these: protein: recombinant; tags: N-terminal His6 with thrombin site (pET15b); chain copies: 2; 3' overhang 1 nt (T) on each strand; self-complementary, 2 copies.

For series [8], the target named is T1, NagR (YvoA). The series is described as above. The conditions noted are these: protein: recombinant; tags: pET15b template; chain copies: 2; 3' overhang 1 nt (T) on each strand; self-complementary, 2 copies.
Series [9] has as its target T1, NagR (YvoA). Put plainly: X-ray crystallography; effector-free; 2.9 A; SPR: HBS-EP pH 7.4, 25 C, biotinylated DNA on SA chip; DNA for EMSA/SEC annealed in 20 mM Tris-HCl pH 7.5, 150 mM NaCl; crystal 4WWC: 0.1 M Bis-Tris pH 6.5, 25% PEG 3500, 292 K. The following applies: protein: recombinant; tags: pET15b template; chain copies: 2; 3' overhang 1 nt (G) on each strand; self-complementary, 2 copies.

Series [10] addresses T2, NagR-DBD. The series is described as follows: EMSA; 2 uM DNA; higher oligomers by bridging of fragments; SPR: HBS-EP pH 7.4, 25 C, biotinylated DNA on SA chip; DNA for EMSA/SEC annealed in 20 mM Tris-HCl pH 7.5, 150 mM NaCl; crystal 4WWC: 0.1 M Bis-Tris pH 6.5, 25% PEG 3500, 292 K. The following applies: protein: recombinant; tags: N-terminal His6 with thrombin site (pET15b); chain copies: 2; 3' overhang 1 nt (T) on each strand; self-complementary, 2 copies.

B1: NagR (full-length, wild-type) from Bacillus subtilis (natural protein, UniProt O34817 1-243, looked up)
chain: MNINKQSPIPIYYQIMEQLKTQIKNGELQPDMPLPSEREYAEQFGISRMTVRQALSNLVNEGLLYRLKGRGTFVSKPKMEQALQGLTSFTEDMKSRGMTPGSRLIDYQLIDSTEELAAILGCGHPSSIHKITRVRLANDIPMAIESSHIPFELAGELNESHFQSSIYDHIERYNSIPISRAKQELEPSAATTEEANILGIQKGAPVLLIKRTTYLQNGTAFEHAKSVYRGDRYTFVHYMDRLS
notes: NagR (formerly YvoA), GntR/HutC family transcription repressor of Bacillus subtilis, full length; The nagR gene stood in a pET15b vector; also called YvoA; full-length NagR
For the molecule B1, the “stoichiometry N” value in series [1] stood at 2.

B2: 26mer native nagAB dsDNA (dsDNA)
DNA 1: GCTCAGCTGGTCTAGATCACTAGTCT
DNA 2: AGACTAGTGATCTAGACCAGCTGAGC
Consider B2, for which the Kd came out at 0.0192 ± 0.0151 nM with NagR (YvoA) [2] and 122 ± 7.6 nM with NagR-DBD [3].

B3: 26mer control dsDNA (random design) (dsDNA)
DNA 1: AATCATTTATGGCATAGGCAACAAGT
DNA 2: ACTTGTTGCCTATGCCATAAATGCTT
Regarding B3, the binding result with NagR-DBD [4] is on record as “no binding”. Moreover, the Kd with NagR (YvoA) [5] (one T:C mismatch as printed at position 3 of strand 1 (possible misprint)) came out at 306 ± 6.3 nM.

B4: 26mer palindromic dsDNA (dsDNA)
DNA 1: GCTCAGGTGGTCTAGACCACTAGTCT
DNA 2: AGACTAGTGGTCTAGACCACCTGAGC
Consider B4, for which the Kd with NagR (YvoA) [2] amounted to 0.0279 ± 0.0067 nM; in the series with NagR-DBD [6] it was 14.5 ± 3.3 nM.

B5: 15mer palindromic dsDNA (dsDNA)
DNA 1: GTGGTCTAGACCACT
DNA 2: GTGGTCTAGACCACT
As for B5, the binding result with NagR-DBD [7] and with NagR (YvoA) [8] was “binds” each time.

B6: 19mer palindromic dsDNA (dsDNA)
DNA 1: CAGTGGTCTAGACCACTGG
DNA 2: CAGTGGTCTAGACCACTGG
Consider B6, for which the binding result in the series with NagR (YvoA) [9] was “binds”.

B7: 26mer control dsDNA (derived from nagA gene) (dsDNA)
DNA 1: GCAGAGAGTCTTCTTATTAAAGACAT
DNA 2: ATGTCTTTAATAAGAAGACTCTCTGC
With B7, the Kd in the series with NagR (YvoA) [5] is 127 ± 4.2 nM.

B8: 15mer palindromic dsDNA (shifted motif) (dsDNA)
DNA 1: GACCACATGTGGTCT
DNA 2: GACCACATGTGGTCT
As for B8, the binding result in the series with NagR-DBD [10] is “binds”.

Usually stoichiometry N stands for a count of units in the complex or per binding partner. As usually defined, the Kd is the concentration at which binding is half-saturated.
